Experimental findings from patent publication US20150118233A1 are described below.

The target in assay [1] is hRSV FTM- NN protein (membrane anchorless form of the Long fusion protein, 70 kDa) (hRSV strain Long). Description: Alphascreen competition: FTM- NN (0.3 nM) bridged by biotinylated Synagis Fab and 101F Fab acceptor beads.
Assay [2] shares this target. Description: SPR (Biacore T100), FTM- NN amine-coupled, 1:1 Langmuir fit. Background: SPR reads the build-up and loss of mass on a sensor chip optically.
The target in assay [3] is F protein of Long escape mutant R7C2/1 (K272E in antigenic site II) (hRSV strain Long escape mutant). Description: cell-based or functional assay.
For assay [4], the target named is F protein of hRSV strain A-2 (hRSV strain A-2). The experiment in a line: cell-based or functional assay.
The target in assay [5] is F protein of Long escape mutant R7C2/11 (antigenic site II) (hRSV strain Long escape mutant). The experiment in a line: cell-based or functional assay.
Assay [6] addresses F protein of hRSV strain B-1 (hRSV strain B-1). The experiment in a line: cell-based or functional assay.
Assay [7] deals with F protein of hRSV strain Long (hRSV strain Long). Description: cell-based or functional assay.

F protein of hRSV strain B-1 (hRSV strain B-1), sequence (chain, as listed by the source limits assumed): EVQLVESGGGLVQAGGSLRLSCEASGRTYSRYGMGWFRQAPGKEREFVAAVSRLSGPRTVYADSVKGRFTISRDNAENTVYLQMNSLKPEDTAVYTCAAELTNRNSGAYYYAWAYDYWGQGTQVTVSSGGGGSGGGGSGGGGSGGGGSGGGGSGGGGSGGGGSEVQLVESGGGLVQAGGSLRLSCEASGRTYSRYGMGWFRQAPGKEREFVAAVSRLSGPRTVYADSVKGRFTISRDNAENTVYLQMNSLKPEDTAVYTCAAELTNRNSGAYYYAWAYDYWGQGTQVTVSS
F protein of hRSV strain A-2 (hRSV strain A-2), sequence (chain, as listed by the source limits assumed): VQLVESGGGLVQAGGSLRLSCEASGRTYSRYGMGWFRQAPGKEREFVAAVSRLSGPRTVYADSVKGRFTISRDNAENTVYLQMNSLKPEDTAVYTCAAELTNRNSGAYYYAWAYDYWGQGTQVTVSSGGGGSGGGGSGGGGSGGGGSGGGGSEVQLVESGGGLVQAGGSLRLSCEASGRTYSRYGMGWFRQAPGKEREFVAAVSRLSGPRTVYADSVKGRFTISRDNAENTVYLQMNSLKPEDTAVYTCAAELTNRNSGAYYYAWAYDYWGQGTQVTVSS
F protein of Long escape mutant R7C2/1 (K272E in antigenic site II) (hRSV strain Long escape mutant), sequence (chain, as listed by the source): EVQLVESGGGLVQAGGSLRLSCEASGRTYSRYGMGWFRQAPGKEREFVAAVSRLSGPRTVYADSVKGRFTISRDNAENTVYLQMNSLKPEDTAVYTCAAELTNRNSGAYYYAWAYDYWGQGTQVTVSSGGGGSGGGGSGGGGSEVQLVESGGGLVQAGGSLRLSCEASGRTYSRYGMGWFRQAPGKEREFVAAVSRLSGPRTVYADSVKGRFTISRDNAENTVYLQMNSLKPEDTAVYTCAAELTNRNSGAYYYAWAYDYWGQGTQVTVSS

Regarding 101F Fab, the half-maximal inhibitory concentration (IC50) (in general, the concentration needed to halve the response being measured) in assay [1] is 1.12 nM.

Numax Fab (Motavizumab or MEDI-524) had an IC50 in assay [1] of 0.086 nM.

“Synagis® (Palivizumab, humanized monoclonal antibody)”: in assay [2], the dissociation constant Kd (in general, a measure of binding affinity in units of concentration) is 0.64 nM; the koff (usually a measure of how fast the partners let go of each other) is 0.00018 s⁻¹; the kon (usually the second-order rate constant of association) came to 280000 M⁻¹ s⁻¹. Besides, the neutralization of escape mutant virus, IC50 in assay [3] is > 200 nM. This substance registered an RSV neutralization IC50 in assay [4] of 2.5 nM. The neutralization of escape mutant virus, IC50 in assay [5] was > 200 nM. Further, in assay [6], the Neutralization IC50 (first assay) was determined as 2.1 nM, the Neutralization IC50 (second assay) was 2.9 nM and the RSV neutralization IC50 was 1.7 nM. In assay [7], the Neutralization IC50 (first assay) came out at 7.3 nM, the Neutralization IC50 (second assay) worked out at 6 nM and the RSV neutralization IC50 stood at 4 nM.
